Starred links: 1 amine or outer side, 2 acyl side, 3 side chain; linkers in the order of their positions; H or OH if unused. Non-standard residues stand in square brackets, D forms with d. *: point of attachment. 4‑nitrohippuryl = O=C(NCC(=O)*)c1ccc([N+](=O)[O-])cc1; Benzoyl(4-(pyrrol-1-yl)) = O=C(c1ccc(-n2cccc2)cc1)*; bis(2,3-dihydroxybenzyl) = not defined here; Cysteamide = C(CS[*:3])N[*:1]; Dap = NC[C@H](N)C(=O)O
Legend:
protein kinase C γ [1] = biological target: T1, protein kinase C γ (UniProt P05129 1-697, limits assumed); test: cell-based or functional assay
protein kinase Cα [2] = biological target: T2, protein kinase Cα (UniProt P17252 1-672, limits assumed); test: cell-based or functional assay
protein kinase C ζ [3] = biological target: T3, protein kinase C ζ (UniProt Q05513 1-592, limits assumed); test: cell-based or functional assay
T3 sequence (looked up): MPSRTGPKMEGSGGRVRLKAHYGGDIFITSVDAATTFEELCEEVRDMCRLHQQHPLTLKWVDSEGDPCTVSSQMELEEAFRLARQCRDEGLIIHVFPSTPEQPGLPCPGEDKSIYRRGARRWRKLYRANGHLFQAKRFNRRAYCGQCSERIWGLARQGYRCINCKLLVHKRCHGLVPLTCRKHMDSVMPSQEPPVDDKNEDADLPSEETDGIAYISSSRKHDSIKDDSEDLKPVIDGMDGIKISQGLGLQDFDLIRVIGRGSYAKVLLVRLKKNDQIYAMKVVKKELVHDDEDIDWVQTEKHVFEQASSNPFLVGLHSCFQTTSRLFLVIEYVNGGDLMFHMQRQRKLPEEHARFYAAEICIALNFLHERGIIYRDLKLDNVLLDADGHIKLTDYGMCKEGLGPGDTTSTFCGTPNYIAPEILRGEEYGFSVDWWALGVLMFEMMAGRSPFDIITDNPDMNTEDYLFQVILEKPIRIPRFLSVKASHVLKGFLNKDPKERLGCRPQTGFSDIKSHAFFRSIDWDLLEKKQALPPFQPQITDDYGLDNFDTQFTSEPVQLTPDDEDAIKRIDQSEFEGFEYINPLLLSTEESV

protein kinase C βI [4] = biological target: T4, protein kinase C βI (UniProt P05771-1 1-671, limits assumed); test: cell-based or functional assay
T4 sequence (P05771 whole entry): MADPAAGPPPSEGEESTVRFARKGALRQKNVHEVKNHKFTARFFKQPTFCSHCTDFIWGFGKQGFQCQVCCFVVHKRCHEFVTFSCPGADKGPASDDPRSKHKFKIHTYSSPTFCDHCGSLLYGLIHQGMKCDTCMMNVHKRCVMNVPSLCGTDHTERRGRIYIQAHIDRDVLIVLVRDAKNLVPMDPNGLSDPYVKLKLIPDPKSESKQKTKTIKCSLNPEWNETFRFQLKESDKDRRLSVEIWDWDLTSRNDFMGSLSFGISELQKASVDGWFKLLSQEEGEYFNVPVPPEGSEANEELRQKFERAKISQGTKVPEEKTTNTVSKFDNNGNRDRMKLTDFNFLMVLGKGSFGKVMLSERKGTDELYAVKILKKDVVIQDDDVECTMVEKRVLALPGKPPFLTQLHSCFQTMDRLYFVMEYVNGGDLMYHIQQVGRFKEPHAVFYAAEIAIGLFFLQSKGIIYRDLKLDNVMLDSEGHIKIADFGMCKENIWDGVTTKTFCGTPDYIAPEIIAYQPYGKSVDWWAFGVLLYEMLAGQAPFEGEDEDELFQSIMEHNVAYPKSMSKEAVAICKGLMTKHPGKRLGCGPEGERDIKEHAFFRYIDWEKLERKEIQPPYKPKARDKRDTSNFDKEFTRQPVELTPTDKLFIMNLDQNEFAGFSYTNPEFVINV

[5] = biological target: T5, protein kinase C τ (atypical; ι in the tables) (UniProt P41743 1-596); test: cell-based or functional assay
T5 sequence (looked up): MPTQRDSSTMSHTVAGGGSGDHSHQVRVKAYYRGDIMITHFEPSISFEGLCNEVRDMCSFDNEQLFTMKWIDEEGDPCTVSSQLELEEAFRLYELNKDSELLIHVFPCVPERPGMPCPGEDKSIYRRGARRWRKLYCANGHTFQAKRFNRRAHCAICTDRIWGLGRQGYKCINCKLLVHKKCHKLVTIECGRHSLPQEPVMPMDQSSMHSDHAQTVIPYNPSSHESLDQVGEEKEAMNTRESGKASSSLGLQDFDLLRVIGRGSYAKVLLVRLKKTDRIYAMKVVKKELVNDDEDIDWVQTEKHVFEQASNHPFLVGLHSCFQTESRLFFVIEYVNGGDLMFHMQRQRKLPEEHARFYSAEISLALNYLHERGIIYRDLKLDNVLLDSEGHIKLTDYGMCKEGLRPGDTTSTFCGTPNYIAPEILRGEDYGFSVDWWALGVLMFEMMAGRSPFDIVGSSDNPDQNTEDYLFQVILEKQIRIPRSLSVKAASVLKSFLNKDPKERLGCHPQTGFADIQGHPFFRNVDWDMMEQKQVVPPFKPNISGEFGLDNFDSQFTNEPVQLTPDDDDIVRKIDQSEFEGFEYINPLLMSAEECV

protein kinase C θ [6] = biological target: T6, protein kinase C θ (UniProt Q04759 1-706, limits assumed); test: cell-based or functional assay
T6 sequence (Q04759 whole entry): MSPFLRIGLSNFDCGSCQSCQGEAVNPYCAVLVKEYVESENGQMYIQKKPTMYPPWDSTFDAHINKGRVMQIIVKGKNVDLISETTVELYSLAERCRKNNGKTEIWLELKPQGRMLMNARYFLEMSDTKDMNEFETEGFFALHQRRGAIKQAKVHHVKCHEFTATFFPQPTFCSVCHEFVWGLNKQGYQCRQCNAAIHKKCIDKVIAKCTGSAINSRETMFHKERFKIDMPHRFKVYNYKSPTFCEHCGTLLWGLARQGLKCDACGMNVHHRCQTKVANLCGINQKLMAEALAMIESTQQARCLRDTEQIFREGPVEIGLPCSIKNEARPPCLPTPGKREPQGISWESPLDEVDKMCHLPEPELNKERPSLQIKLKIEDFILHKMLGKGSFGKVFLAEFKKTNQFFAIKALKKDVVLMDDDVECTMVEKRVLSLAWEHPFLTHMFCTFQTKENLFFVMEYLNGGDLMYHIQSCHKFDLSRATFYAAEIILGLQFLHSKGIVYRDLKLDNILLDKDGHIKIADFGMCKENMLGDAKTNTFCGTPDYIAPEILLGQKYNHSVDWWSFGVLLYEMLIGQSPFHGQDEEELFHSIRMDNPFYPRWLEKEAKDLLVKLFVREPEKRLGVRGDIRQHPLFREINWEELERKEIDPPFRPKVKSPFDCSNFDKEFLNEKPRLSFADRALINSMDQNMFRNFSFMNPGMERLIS

protein kinase C ε [7] = biological target: T7, protein kinase C ε (UniProt Q02156 1-737, limits assumed); test: cell-based or functional assay
T7 sequence (looked up): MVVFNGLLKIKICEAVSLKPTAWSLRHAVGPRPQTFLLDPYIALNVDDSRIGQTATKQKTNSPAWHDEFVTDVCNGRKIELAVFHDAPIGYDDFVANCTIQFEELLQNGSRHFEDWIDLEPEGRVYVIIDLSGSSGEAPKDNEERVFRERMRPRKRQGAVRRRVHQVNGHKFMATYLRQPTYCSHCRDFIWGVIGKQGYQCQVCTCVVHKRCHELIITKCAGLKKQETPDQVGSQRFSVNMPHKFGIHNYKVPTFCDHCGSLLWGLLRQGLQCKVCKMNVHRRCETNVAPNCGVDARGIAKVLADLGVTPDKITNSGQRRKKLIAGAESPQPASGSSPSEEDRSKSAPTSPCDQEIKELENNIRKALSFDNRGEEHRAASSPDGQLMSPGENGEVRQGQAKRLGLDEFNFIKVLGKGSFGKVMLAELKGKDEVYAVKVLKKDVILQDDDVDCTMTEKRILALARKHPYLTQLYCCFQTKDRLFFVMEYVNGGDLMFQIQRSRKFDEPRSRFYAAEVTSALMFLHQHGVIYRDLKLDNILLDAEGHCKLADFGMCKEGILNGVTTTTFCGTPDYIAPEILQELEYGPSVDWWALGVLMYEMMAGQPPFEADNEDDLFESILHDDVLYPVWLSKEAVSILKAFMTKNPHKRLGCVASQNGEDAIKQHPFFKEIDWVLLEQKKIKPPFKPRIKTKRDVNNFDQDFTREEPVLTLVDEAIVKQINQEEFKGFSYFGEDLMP

protein kinase C η [8] = biological target: T8, protein kinase C η (UniProt P24723 1-683, limits assumed); test: cell-based or functional assay
T8 sequence (P24723 whole entry): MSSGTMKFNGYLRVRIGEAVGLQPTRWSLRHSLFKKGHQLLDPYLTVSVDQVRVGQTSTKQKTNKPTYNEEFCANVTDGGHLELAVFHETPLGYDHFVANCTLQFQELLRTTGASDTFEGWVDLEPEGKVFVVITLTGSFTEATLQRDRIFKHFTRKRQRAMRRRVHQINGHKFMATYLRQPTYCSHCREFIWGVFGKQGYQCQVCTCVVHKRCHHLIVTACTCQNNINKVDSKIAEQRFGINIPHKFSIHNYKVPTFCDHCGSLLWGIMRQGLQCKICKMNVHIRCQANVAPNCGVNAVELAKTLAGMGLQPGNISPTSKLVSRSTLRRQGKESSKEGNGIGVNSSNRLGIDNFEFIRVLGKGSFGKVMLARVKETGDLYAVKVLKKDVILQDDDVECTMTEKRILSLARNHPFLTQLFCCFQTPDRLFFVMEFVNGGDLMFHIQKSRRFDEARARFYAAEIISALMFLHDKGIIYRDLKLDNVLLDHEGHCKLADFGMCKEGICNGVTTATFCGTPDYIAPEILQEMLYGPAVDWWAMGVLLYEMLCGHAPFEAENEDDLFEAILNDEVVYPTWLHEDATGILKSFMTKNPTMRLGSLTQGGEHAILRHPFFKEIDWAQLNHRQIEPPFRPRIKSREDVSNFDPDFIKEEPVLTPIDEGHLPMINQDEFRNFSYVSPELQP

protein kinase C ζ [9] = biological target: T3, protein kinase C ζ; test: PKC ζ 33P kinase assay, double reciprocal plots at variable peptide substrate; competitive pattern
Experimental: K_i determinations. […] ATP for radioactive detection. 10 µL enzyme diluted buffer containing 20 mM Tris (pH 7.5), PKC (10 ng/well), 0.5 mM DTT, BSA (375 µg/mL) and 0.5 mM EDTA.4Na.2H_2O was added to initiate the reaction. Total reaction volume in each well was 50 µL. All the wells were tested in the same plate and each concentration was tested in triplicate. Subsequent assay workup and scintillation counting were performed as described above. Double reciprocal plots were obtained at different concentrations of substrates. K_i values were calculated using Enzyme Kinetics, SigmaPlot (SPSS Inc.).

protein kinase C γ [10] = biological target: T1, protein kinase C γ; test: cell-based or functional assay; remark: listed apart in the source
protein kinase Cα [11] = biological target: T2, protein kinase Cα; test: cell-based or functional assay; remark: listed apart in the source
protein kinase C ζ [12] = biological target: T3, protein kinase C ζ; test: cell-based or functional assay; remark: listed apart in the source
protein kinase C βI [13] = biological target: T4, protein kinase C βI; test: cell-based or functional assay; remark: listed apart in the source
protein kinase C θ [14] = biological target: T6, protein kinase C θ; test: cell-based or functional assay; remark: listed apart in the source
protein kinase C ε [15] = biological target: T7, protein kinase C ε; test: cell-based or functional assay; remark: listed apart in the source
protein kinase C η [16] = biological target: T8, protein kinase C η; test: cell-based or functional assay; remark: listed apart in the source
protein kinase Cα [17] = biological target: T2, protein kinase Cα; test: equilibrium dialysis with fluorescence read-out, 250 nM PKCα and 500 nM peptide 7, 4° C., without AMP-PNP
Experimental: (§1) Determination of K_D Values. […] All samples were prepared in a buffer containing 50 mM HEPES (pH 7.5), 0.8 mM CaCl_2.2H_2O, 13.6 mM MgCl_2.6H_2O, 0.56 mM EGTA.Na, phosphatidylserine (90 µg/mL), diacylglycerol (16 µg/mL), 4 mM Tris (pH 7.5), 0.2 mM DTT, BSA (146 µg/mL), 0.2 mM EDTA.4Na.2H_2O and AMP-PNP (a nonhydrolyzable ATP analogue) or without AMP-PNP at pH 7.5. Slide-A-Lyzer dialysis slide cassettes (Pierce, 10K MWCO, 0.1-0.5 mL capacity) were employed and contained 250 nM PKCα and 500 nM fluorescein-labeled peptide 7. The slide cassettes contained a final volume of 180 µL. The cassettes were placed in beaker containing a volume of buffer solution that was at least 500-fold greater than that of the sample volume in the dialysis slide cassette. Equilibrium dialysis experiments were performed over a period of 16 hr and maintained at 4° C. The fluorescence intensity of the solutions in the slide cassette (F_i) and in the beaker (F_o) was measured. The excitation wavelength for the fluorescein-labeled peptide 7 was 499 nm and the emission monitored at 519 nm. The K_D values were calculated from Equation 1.

protein kinase Cα [18] = biological target: T2, protein kinase Cα; test: equilibrium dialysis with fluorescence read-out, 250 nM PKCα and 500 nM peptide 7, 4° C., with AMP-PNP
Experimental: as §1

Binder: {bis(2,3-dihydroxybenzyl)}-RRQG[Dap](4‑nitrohippuryl)FMYF-Cysteamide (reading uncertain) [Compound G (doubly alkylated analogue of F)]
- Fold selectivity (IC50), PKC ζ = 1 (protein kinase C γ [1]): 5090 fold
- Fold selectivity (IC50), PKC ζ = 1 (protein kinase Cα [2]): 6330 fold
- Fold selectivity (IC50), PKC ζ = 1 (protein kinase C ζ [3]): 1 fold
- IC50 or Ki of the most potently inhibited isoform (protein kinase C ζ [3]): 0.0075 µM
- Fold selectivity (IC50), PKC ζ = 1 (protein kinase C βI [4]): 730 fold
- Fold selectivity (IC50), PKC ζ = 1 [5]: 1490 fold
- Fold selectivity (IC50), PKC ζ = 1 (protein kinase C θ [6]): 2230 fold
- Fold selectivity (IC50), PKC ζ = 1 (protein kinase C ε [7]): 4600 fold
- Fold selectivity (IC50), PKC ζ = 1 (protein kinase C η [8]): 2040 fold
- Ki (protein kinase C ζ [9]): 0.0039 µM
- IC50, PKC kinase assay (33P, peptide substrate) (protein kinase C γ [10]): 38.2 µM
- IC50, PKC kinase assay (33P, peptide substrate) (protein kinase Cα [11]): 47.5 µM
- IC50, PKC kinase assay (33P, peptide substrate) (protein kinase C ζ [12]): 0.00075 µM
- IC50, PKC kinase assay (33P, peptide substrate) (protein kinase C βI [13]): 5.5 µM
- IC50, PKC kinase assay (33P, peptide substrate) (protein kinase C θ [14]): 16.7 µM
- IC50, PKC kinase assay (33P, peptide substrate) (protein kinase C ε [15]): 34.5 µM
- IC50, PKC kinase assay (33P, peptide substrate) (protein kinase C η [16]): 15.3 µM

Binder: Ac-ARRGALR[Dap](Benzoyl(4-(pyrrol-1-yl)))A-{NH(CH2)2S-CH2CONH‑fluorescein‑5‑yl} [fluorescein-labeled peptide 7]
- Kd (protein kinase Cα [17]): 1.8 µM
- Kd (protein kinase Cα [18]): 0.203 µM

Source: patent publication US7902330 (ALBERT EINSTEIN COLLEGE OF MEDICINE OF YESHIVA UNIVERSITY, dated 2011)
